# Test results reported in the nanobody polyreactivity screen of Harvey et al. (2022).
# Experiment: yeast display, Sf9 membrane polyspecificity reagent, FACS + sequencing; frameworks hold sequencing errors
# Procedure, shortened: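 After 36–48 hours of galactose induction, yeast (Saccharomyces cerevisiae BJ5465) displaying a synthetic nanobody library were stained at 4 °C for 1 hour with 10% biotinylated, detergent-solubilized Sf9 membrane reagent. Streptavidin microbeads enriched the stained cells before FACS sorting into low and high (top ~1%) gates on anti-HA and streptavidin fluorescence. Each clone's polyreactivity label reflects its gate of origin.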
row,Sequence,polyreactivity (PSR sort gate)
1,QVQLVESGGGLVQAGGSLRLSCAASGSTVKTYAMGWYRQAPGKERELVAAISWSGGSTYYADSVKGRFTISRDNAKNTVYLQMNSLKPEDTAVYYCNAGWGYPSPWFIGEYWGQGTQVTVSS,low polyreactivity
2,QVQLVESGGGLVQAGGSLRLSCAASGSTVYYNAMGWYRQAPGKERELVAAISRSGGRTYYADSVKGRFTISRDNAKNTVYLQMNSLKPEDTAVYYCAADAPGHEYYYWGQGTQVTVSS,high polyreactivity
3,QVQLVESGGGLVQAGGSLRLSCAASGSTYIANPMGWYRQAPGKEREFLATISRRGGSTYYADSVKGRFTISRDNAKNTVYLQMNSLKPEDTAVYYCAARPLTYIRFRYYYWGQGTQVTVSS,high polyreactivity
4,QVQLVESGGGLVQAGGSLRLSCAASGSTYIDYAMGWYRQAPGKERELVASIRYSGGGTYYADSVKGRFTISRDNAKNTVYFQMNSLKPEDTAVYYCAKDTHLLNEHSGTSREYDYWGQGTQVTVSS,low polyreactivity
5,QVQLVESGGGLVQAGGSLRLSCAASGSTYPGNAMGWYRQAPGNERELVALINDGADTNYADSVKGRFTISRDNAKNTVYLQMNSLKPEDTAVYYCAKRSLYPTYDYWGQGTQVTVSS,low polyreactivity
6,QVQLVESGGGLVQAGGSLRLSCAASGSTYQGYAMGWYRQAPGKERELVAAISGRSGSTYYADSVKGRFTISRDNAKNTVYLEMNSLKQEDTAVYYFNAVTGVNPSLDYWGQGTQVTVSS,high polyreactivity
7,QVQLVESGGGLVQAGGSLRLSCAASGSTYRYVMGWYRQAPGKERELVAAITYTGGSTYYADSVKGRFTISRDNAKNTVYLQMNSLKPEDTAVYYCAASRYYTFDYWGQGTQVTVSS,high polyreactivity
8,QVQLVESGGGLVQAGGSLRLSCAASGSTYSYYAMGWYRQAPGKERELVAAITSSGSSTYYADSVKARFTISRDNAKNTVYLPMISLKPEDPAVYYCAAGRYRYTYRYFTAWYGYWGQGTQVTVSS,high polyreactivity
9,QVQLVESGGGLVQAGGSLRLSCAASGSTYYANAMGWYRQAPGKEREFVATISSSDGSTYYADSVKGRFTISRDNAMNTVYLQMYSLKPEDTAVYYCNAADYPEAHSTYYYWGQGTLVTVSS,low polyreactivity
10,QVQLVESGGGLVQAGGSLRLSCAASGSTYYNAMGWSRQAPGNERELVAAIRFRSGSTYYADSVKGRFTISRDNAKNTVYLQMNSLTPEDTAVYYCAADNKRSWRYAYNYWGQGTQVTVSS,high polyreactivity
11,QVQLVESGGGLVQAGGSLRLSCAASGSTYYNAMGWYRQAPGKERELVAAIRFRSGSTYYADSVKGRFTISRDNAKNTVYLQMNSLKPEDTAVYYCAADNKRSWRYAYNYWGQGTQVTVSS,high polyreactivity
12,QVQLVESGGGLVQAGGSLRLSCAASGTFFGYAMGWYRQAPGKERELVAAITSGGSTYYADSVKGRFTISRDNAKNTVYLQMNSLKPEVTAVYYCARVYSRWSYRYDYWGQGTQVTVSS,low polyreactivity
13,QVQLVESGGGLVQAGGSLRLSCAASGTFFIYAMGWYRQAPGKERELVATISSGGSTNYADSVKGRFTISRDNAKNTVYLQMNSLKPEDTAVYYCAAEWLYPHDGGYPRPMDYWGQGTQVTVSS,low polyreactivity
14,QVQLVESGGGLVQAGGSLRLSCAASGTFFIYAMGWYRQAPGKERELVATISTGGSTNYADSVKGRFTISRDNAKNTVYLQMNSLKPEDTAVYYFAAEWLYPHDGGYPRPMDYWGQGTQVTVSS,low polyreactivity
15,QVQLVESGGGLVQAGGSLRLSCAASGTFGVYAMGWYRQAPGKERELVAVITDSGGTNYADSVKGRFTISRDNAKNTVYLQMNSLKPEDTAVYYCNTDAGDYYGENYWGQGTQVTVSS,low polyreactivity
16,QVQLVESGGGLVQAGGSLRLSCAASGTFSNYAMGWYRQAPGKERELVAGISKRGGSTYYADSVKGRFTISRDNAKNTVYLQMNSLKPEDTAVYYCRVYAYDYWGQGTQVTVSS,low polyreactivity
17,QVQLVESGGGLVQAGGSLRLSCAASGTFSSYAMGWYRQAPGKERELVAAITNGGNTNYADSVKGRFTISRDNAKNTVYLQMNSLKPEDTAVYYCNARYGNESQGWEDYWGQGTQVTVSS,low polyreactivity
